The values below come from article PMC7487859.

Data set [1] deals with PDGFRbeta (mouse, on 4T1 cells) (Mus musculus). The data set is described as follows: streptavidin-biotin cell binding assay. The note with it: apparent Kd on intact 4T1 cells; Scr background subtracted; 2'-fluoro pyrimidines; 4T1 cells (2x10^4/well), 10-500 nM aptamer, 10 min, room temperature, BlockAid blocking solution with 1 mg/ml yeast tRNA and 1 mg/ml salmon sperm DNA; salt and ….

Data set [2] deals with PDGFRbeta (human, on MDA-MB-231 cells) (Homo sapiens). The data set is described as follows: cell binding assay. As to conditions: intact MDA-MB-231 cells; 2'-fluoro pyrimidines; 10-500 nM aptamer, 10 min, room temperature, BlockAid blocking solution with 1 mg/ml yeast tRNA and 1 mg/ml salmon sperm DNA; salt; cited from earlier work.

Regarding Gint4.T, in data set [1], the Kd stood at 76.8 nM. In the case of Gint4.T (as in cited ref 31), the Kd in data set [2] was 57.5 nM.
